# From ChEMBL document CHEMBL1212722, “Designer enzymes for glycosphingolipid synthesis by directed evolution” (Nat Chem Biol, 2009)
# Substitutions are numbered along the chain they refer to. Names may count otherwise.
# B1: Endoglycoceramidase II (Rhodococcus sp), A0ACD6B832 P394S (protein)
# chain: MRRTRLVSLIVTGSLVFGGGVAAAQSSLAASGSGSGSGTALTPSYLKDDDGRSLILRGFNTASSAKSAPDGMPQFTEADLAREYADMGTNFVRFLISWRSVEPAPGVYDQQYLDRVEDRVGWYAERGYKVMLDMHQDVYSGAITPEGNSGNGAGAIGNGAPAWATYMDGLPVEPQPRWELYYIQPGVMRAFDNFWNTTGKHPELVEHYAKAWRAVADRFADNDAVVAYDLMNEPFGGSLQGPAFEAGPLAAMYQRTTDAIRQVDQDTWVCVAPQAIGVNQGLPSGLTKIDDPRAGQQRIAYCPHLYPLPLDIGDGHEGLARTLTDVTIDAWRANTAHTARVLGDVPIILGEFGLDTTLPGARDYIERVYGTAREMGAGVSYWSSDPGPWGPYLSDGTQTLLVDTLNKPYPRAVAGTPTEWSSTSDRLQLTIEPDAAITAPTEIYLPEAGFPGDVHVEGADVVGWDRQSRLLTVRTPADSGNVTVTVTPAA
# B2: Endoglycoceramidase II (Rhodococcus sp), A0ACD6B832 V269I (protein)
# chain: B1 chain with V269I, S394P
# B3: Endoglycoceramidase II (Rhodococcus sp), A0ACD6B832 G370E (protein)
# chain: B1 chain with G370E, S394P
# B4: Endoglycoceramidase II (Rhodococcus sp), A0ACD6B832 V269I,G370R (protein)
# chain: B1 chain with V269I, G370R, S394P
# B5: Endoglycoceramidase II (Rhodococcus sp), A0ACD6B832 A153T,D314Y,R177H (protein)
# chain: B1 chain with A153T, R177H, D314Y, S394P
# Legend:
# [1] = substrate: CC(=O)N[C@H]1[C@H](O[C@@H]2[C@H](O[C@]3(C(=O)O)C[C@H](O)[C@@H](NC(C)=O)[C@H]([C@@H](O)[C@@H](O)CO)O3)[C@@H](O)[C@H](O[C@H]3[C@H](O)[C@@H](O)[C@@H](F)O[C@@H]3CO)O[C@@H]2CO)O[C@H](CO)[C@H](O)[C@@H]1O[C@@H]1O[C@H](CO)[C@H](O)[C@H](O)[C@H]1O; assay: (§1) Activity of Rhodococcus sp. M777 Endoglycoceramidase 2 P394S mutant
# [2] = substrate: CCCCCCCCCCCCC/C=C/[C@@H](O)[C@@H](N)CO; assay: as §1
# [3] = substrate: CC(=O)N[C@H]1[C@H](O[C@@H]2[C@H](O[C@]3(C(=O)O)C[C@H](O)[C@@H](NC(C)=O)[C@H]([C@@H](O)[C@@H](O)CO)O3)[C@@H](O)[C@H](O[C@H]3[C@H](O)[C@@H](O)[C@@H](F)O[C@@H]3CO)O[C@@H]2CO)O[C@H](CO)[C@H](O)[C@@H]1O[C@@H]1O[C@H](CO)[C@H](O)[C@H](O)[C@H]1O; assay: (§2) Ratio of Kcat to Km of Activity of Rhodococcus sp. M777 Endoglycoceramidase 2 P394S mutant
# [4] = substrate: CCCCCCCCCCCCC/C=C/[C@@H](O)[C@@H](N)CO; assay: as §2
# [5] = substrate: CC(=O)N[C@H]1[C@H](O[C@@H]2[C@H](O[C@]3(C(=O)O)C[C@H](O)[C@@H](NC(C)=O)[C@H]([C@@H](O)[C@@H](O)CO)O3)[C@@H](O)[C@H](O[C@H]3[C@H](O)[C@@H](O)[C@@H](F)O[C@@H]3CO)O[C@@H]2CO)O[C@H](CO)[C@H](O)[C@@H]1O[C@@H]1O[C@H](CO)[C@H](O)[C@H](O)[C@H]1O; assay: (§3) Activity of Rhodococcus sp. M777 Endoglycoceramidase 2 V269I mutant
# [6] = substrate: CCCCCCCCCCCCC/C=C/[C@@H](O)[C@@H](N)CO; assay: as §3
# [7] = substrate: CC(=O)N[C@H]1[C@H](O[C@@H]2[C@H](O[C@]3(C(=O)O)C[C@H](O)[C@@H](NC(C)=O)[C@H]([C@@H](O)[C@@H](O)CO)O3)[C@@H](O)[C@H](O[C@H]3[C@H](O)[C@@H](O)[C@@H](F)O[C@@H]3CO)O[C@@H]2CO)O[C@H](CO)[C@H](O)[C@@H]1O[C@@H]1O[C@H](CO)[C@H](O)[C@H](O)[C@H]1O; assay: (§4) Ratio of Kcat to Km of Activity of Rhodococcus sp. M777 Endoglycoceramidase 2 V269I mutant
# [8] = substrate: CCCCCCCCCCCCC/C=C/[C@@H](O)[C@@H](N)CO; assay: as §4
# [9] = substrate: CC(=O)N[C@H]1[C@H](O[C@@H]2[C@H](O[C@]3(C(=O)O)C[C@H](O)[C@@H](NC(C)=O)[C@H]([C@@H](O)[C@@H](O)CO)O3)[C@@H](O)[C@H](O[C@H]3[C@H](O)[C@@H](O)[C@@H](F)O[C@@H]3CO)O[C@@H]2CO)O[C@H](CO)[C@H](O)[C@@H]1O[C@@H]1O[C@H](CO)[C@H](O)[C@H](O)[C@H]1O; assay: (§5) Activity of Rhodococcus sp. M777 Endoglycoceramidase 2 G370E mutant
# [10] = substrate: CCCCCCCCCCCCC/C=C/[C@@H](O)[C@@H](N)CO; assay: as §5
# [11] = substrate: CC(=O)N[C@H]1[C@H](O[C@@H]2[C@H](O[C@]3(C(=O)O)C[C@H](O)[C@@H](NC(C)=O)[C@H]([C@@H](O)[C@@H](O)CO)O3)[C@@H](O)[C@H](O[C@H]3[C@H](O)[C@@H](O)[C@@H](F)O[C@@H]3CO)O[C@@H]2CO)O[C@H](CO)[C@H](O)[C@@H]1O[C@@H]1O[C@H](CO)[C@H](O)[C@H](O)[C@H]1O; assay: (§6) Ratio of Kcat to Km of Activity of Rhodococcus sp. M777 Endoglycoceramidase 2 G370E mutant
# [12] = substrate: CCCCCCCCCCCCC/C=C/[C@@H](O)[C@@H](N)CO; assay: as §6
# [13] = substrate: CC(=O)N[C@H]1[C@H](O[C@@H]2[C@H](O[C@]3(C(=O)O)C[C@H](O)[C@@H](NC(C)=O)[C@H]([C@@H](O)[C@@H](O)CO)O3)[C@@H](O)[C@H](O[C@H]3[C@H](O)[C@@H](O)[C@@H](F)O[C@@H]3CO)O[C@@H]2CO)O[C@H](CO)[C@H](O)[C@@H]1O[C@@H]1O[C@H](CO)[C@H](O)[C@H](O)[C@H]1O; assay: (§7) Activity of Rhodococcus sp. M777 Endoglycoceramidase 2 V269I G370R mutant
# [14] = substrate: CCCCCCCCCCCCC/C=C/[C@@H](O)[C@@H](N)CO; assay: as §7
# [15] = substrate: CC(=O)N[C@H]1[C@H](O[C@@H]2[C@H](O[C@]3(C(=O)O)C[C@H](O)[C@@H](NC(C)=O)[C@H]([C@@H](O)[C@@H](O)CO)O3)[C@@H](O)[C@H](O[C@H]3[C@H](O)[C@@H](O)[C@@H](F)O[C@@H]3CO)O[C@@H]2CO)O[C@H](CO)[C@H](O)[C@@H]1O[C@@H]1O[C@H](CO)[C@H](O)[C@H](O)[C@H]1O; assay: (§8) Ratio of Kcat to Km of Activity of Rhodococcus sp. M777 Endoglycoceramidase 2 V269I G370R mutant
# [16] = substrate: CCCCCCCCCCCCC/C=C/[C@@H](O)[C@@H](N)CO; assay: as §8
# [17] = substrate: CC(=O)N[C@H]1[C@H](O[C@@H]2[C@H](O[C@]3(C(=O)O)C[C@H](O)[C@@H](NC(C)=O)[C@H]([C@@H](O)[C@@H](O)CO)O3)[C@@H](O)[C@H](O[C@H]3[C@H](O)[C@@H](O)[C@@H](F)O[C@@H]3CO)O[C@@H]2CO)O[C@H](CO)[C@H](O)[C@@H]1O[C@@H]1O[C@H](CO)[C@H](O)[C@H](O)[C@H]1O; assay: (§9) Activity of Rhodococcus sp. M777 Endoglycoceramidase 2 A153T D314Y R177H mutant
# [18] = substrate: CCCCCCCCCCCCC/C=C/[C@@H](O)[C@@H](N)CO; assay: as §9
# [19] = substrate: CC(=O)N[C@H]1[C@H](O[C@@H]2[C@H](O[C@]3(C(=O)O)C[C@H](O)[C@@H](NC(C)=O)[C@H]([C@@H](O)[C@@H](O)CO)O3)[C@@H](O)[C@H](O[C@H]3[C@H](O)[C@@H](O)[C@@H](F)O[C@@H]3CO)O[C@@H]2CO)O[C@H](CO)[C@H](O)[C@@H]1O[C@@H]1O[C@H](CO)[C@H](O)[C@H](O)[C@H]1O; assay: (§10) Ratio of Kcat to Km of Activity of Rhodococcus sp. M777 Endoglycoceramidase 2 A153T D314Y R177H mutant
# [20] = substrate: CCCCCCCCCCCCC/C=C/[C@@H](O)[C@@H](N)CO; assay: as §10
protein,measurement,setting,value
B1,Km,[1],690 µM
same,kcat,[1],0.22 s⁻¹
same,Km,[2],500 µM
same,kcat,[2],0.33 s⁻¹
same,kcat/Km,[3],319 s⁻¹ M⁻¹
same,kcat/Km,[4],660 s⁻¹ M⁻¹
B2,Km,[5],600 µM
same,kcat,[5],0.13 s⁻¹
same,Km,[6],810 µM
same,kcat,[6],0.18 s⁻¹
same,kcat/Km,[7],217 s⁻¹ M⁻¹
same,kcat/Km,[8],222 s⁻¹ M⁻¹
B3,Km,[9],850 µM
same,kcat,[9],0.21 s⁻¹
same,Km,[10],670 µM
same,kcat,[10],0.28 s⁻¹
same,kcat/Km,[11],247 s⁻¹ M⁻¹
same,kcat/Km,[12],418 s⁻¹ M⁻¹
B4,Km,[13],890 µM
same,kcat,[13],0.17 s⁻¹
same,Km,[14],480 µM
same,kcat,[14],0.26 s⁻¹
same,kcat/Km,[15],191 s⁻¹ M⁻¹
same,kcat/Km,[16],542 s⁻¹ M⁻¹
B5,Km,[17],800 µM
same,kcat,[17],0.28 s⁻¹
same,Km,[18],490 µM
same,kcat,[18],0.24 s⁻¹
same,kcat/Km,[19],350 s⁻¹ M⁻¹
same,kcat/Km,[20],490 s⁻¹ M⁻¹
